These are literature values, as cited in publication PMC11988805.

Usually Kd stands for the constant that tells how readily two partners part at equilibrium.

The target in data set [1] is stapled BH3 peptide BH3 (Homo sapiens) (UniProt P55957).
In data set [2] the target is unstapled BH3 peptide BH3 (Homo sapiens) (UniProt P55957).

In the case of Bcl-2 (from UniProt P10415), the Kd in data set [1] is 38.8 nM; in data set [2], 269 nM.
